Assays:
Details in all cases: both partners purified
[1] = biological target: T1, N(1/180–265/422), bacterially expressed (Chandipura virus, UniProt P11211 1-422, N(1/180–265/422)); experiment: pull-down; His-tag co-elution after 1% DOC treatment of the N variants and dialysis against the binding buffer in presence of His-P (N variants monomeric); Ni-NTA agarose, eluted with 250 mM imidazole
T1 construct: also called middle deletant; source: E. coli BL21(DE3) or BL21(DE3)pLysS, purified (anion exchange, MonoQ 5/50 GL)
T1 sequence: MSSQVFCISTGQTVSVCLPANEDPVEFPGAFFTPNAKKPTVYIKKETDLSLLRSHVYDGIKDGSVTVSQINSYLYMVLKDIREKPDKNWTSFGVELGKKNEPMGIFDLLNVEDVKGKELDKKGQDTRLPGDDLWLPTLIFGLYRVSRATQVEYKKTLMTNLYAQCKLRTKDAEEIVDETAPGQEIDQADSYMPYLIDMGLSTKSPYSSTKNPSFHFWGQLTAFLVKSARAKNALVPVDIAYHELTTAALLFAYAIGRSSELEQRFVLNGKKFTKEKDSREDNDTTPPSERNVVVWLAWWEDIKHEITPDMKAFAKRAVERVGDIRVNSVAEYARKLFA

[2] = biological target: T2, N(1–320), bacterially expressed (Chandipura virus, UniProt P11211 1-320); experiment: as above
T2 construct: Chandipura virus nucleocapsid protein N, residues 1-320; also called N(1–320)^0 (monomer after DOC treatment); source: E. coli BL21(DE3) or BL21(DE3)pLysS, purified (anion exchange, MonoQ 5/50 GL)
T2 sequence: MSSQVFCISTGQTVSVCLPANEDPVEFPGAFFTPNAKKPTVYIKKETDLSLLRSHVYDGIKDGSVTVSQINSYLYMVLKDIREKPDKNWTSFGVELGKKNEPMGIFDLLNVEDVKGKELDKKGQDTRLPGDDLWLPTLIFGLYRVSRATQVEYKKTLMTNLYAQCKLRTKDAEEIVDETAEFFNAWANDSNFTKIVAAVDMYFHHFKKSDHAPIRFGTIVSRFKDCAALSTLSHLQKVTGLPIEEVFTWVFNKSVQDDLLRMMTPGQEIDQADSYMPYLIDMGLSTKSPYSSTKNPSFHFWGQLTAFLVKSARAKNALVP

[3] = biological target: T3, Chandipura virus nucleocapsid protein (N), wild-type, untagged, bacterially expressed (Chandipura virus, UniProt P11211 1-422); experiment: pull-down; His-tag co-elution: N proteins not treated with DOC incubated with 6×His-P in 50 mM Tris-Cl pH 8, 100 mM NaCl, 0.1% Triton X-100, 10 mM imidazole, 30 min at 4°C; bound to Ni-NTA agarose, eluted with 250 mM imidazole
T3 construct: Chandipura virus nucleocapsid protein N, full-length untagged (pET3a-NC); Oligomeric (nucleocapsid-like rings) as purified; monomeric after 1% DOC; also called CHPV N; wild-type N
T3 sequence: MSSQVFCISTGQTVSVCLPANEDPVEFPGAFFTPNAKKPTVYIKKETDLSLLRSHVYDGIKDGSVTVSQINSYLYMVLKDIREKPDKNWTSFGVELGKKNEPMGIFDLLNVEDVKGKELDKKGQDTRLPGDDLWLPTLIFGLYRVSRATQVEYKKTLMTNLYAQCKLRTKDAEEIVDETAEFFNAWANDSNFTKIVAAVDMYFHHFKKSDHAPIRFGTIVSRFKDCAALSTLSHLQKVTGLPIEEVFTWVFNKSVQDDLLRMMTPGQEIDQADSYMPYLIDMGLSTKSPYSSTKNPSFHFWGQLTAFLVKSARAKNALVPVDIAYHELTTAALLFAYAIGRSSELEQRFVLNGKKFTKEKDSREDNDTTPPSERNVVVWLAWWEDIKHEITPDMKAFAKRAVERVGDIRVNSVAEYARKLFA

[4] = biological target: T4, N(1–390), bacterially expressed (Chandipura virus, UniProt P11211 1-390); experiment: as above
T4 construct: Chandipura virus nucleocapsid protein N, residues 1-390; source: E. coli BL21(DE3) or BL21(DE3)pLysS, purified (anion exchange, MonoQ 5/50 GL)
T4 sequence: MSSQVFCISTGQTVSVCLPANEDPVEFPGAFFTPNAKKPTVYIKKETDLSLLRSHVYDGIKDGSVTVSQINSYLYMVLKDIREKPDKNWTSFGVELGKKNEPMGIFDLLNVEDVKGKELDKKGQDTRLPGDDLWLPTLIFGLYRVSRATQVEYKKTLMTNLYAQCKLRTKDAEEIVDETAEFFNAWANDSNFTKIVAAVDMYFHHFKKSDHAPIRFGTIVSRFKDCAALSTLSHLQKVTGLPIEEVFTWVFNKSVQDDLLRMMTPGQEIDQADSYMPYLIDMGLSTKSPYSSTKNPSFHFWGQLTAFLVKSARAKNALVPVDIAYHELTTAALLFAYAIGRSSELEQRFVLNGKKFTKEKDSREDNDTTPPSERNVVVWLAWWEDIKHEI

[5] = biological target: T5, N(22–422), bacterially expressed (Chandipura virus, UniProt P11211 22-422); experiment: as above
T5 construct: source: E. coli BL21(DE3) or BL21(DE3)pLysS, purified (anion exchange, MonoQ 5/50 GL)
T5 sequence: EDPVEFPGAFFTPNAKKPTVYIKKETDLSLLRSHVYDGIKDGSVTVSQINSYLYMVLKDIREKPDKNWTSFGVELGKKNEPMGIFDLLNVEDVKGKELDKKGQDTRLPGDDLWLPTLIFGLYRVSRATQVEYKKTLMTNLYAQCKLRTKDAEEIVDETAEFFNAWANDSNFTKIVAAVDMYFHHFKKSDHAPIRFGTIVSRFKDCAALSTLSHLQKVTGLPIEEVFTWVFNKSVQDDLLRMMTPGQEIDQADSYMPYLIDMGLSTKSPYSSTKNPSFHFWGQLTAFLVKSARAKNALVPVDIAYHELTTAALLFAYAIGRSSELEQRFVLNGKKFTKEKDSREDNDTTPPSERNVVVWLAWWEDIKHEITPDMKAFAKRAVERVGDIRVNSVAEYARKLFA

[6] = biological target: T6, N(48–422), bacterially expressed (Chandipura virus, UniProt P11211 48-422); experiment: as above
T6 construct: source: E. coli BL21(DE3) or BL21(DE3)pLysS, purified (anion exchange, MonoQ 5/50 GL)
T6 sequence: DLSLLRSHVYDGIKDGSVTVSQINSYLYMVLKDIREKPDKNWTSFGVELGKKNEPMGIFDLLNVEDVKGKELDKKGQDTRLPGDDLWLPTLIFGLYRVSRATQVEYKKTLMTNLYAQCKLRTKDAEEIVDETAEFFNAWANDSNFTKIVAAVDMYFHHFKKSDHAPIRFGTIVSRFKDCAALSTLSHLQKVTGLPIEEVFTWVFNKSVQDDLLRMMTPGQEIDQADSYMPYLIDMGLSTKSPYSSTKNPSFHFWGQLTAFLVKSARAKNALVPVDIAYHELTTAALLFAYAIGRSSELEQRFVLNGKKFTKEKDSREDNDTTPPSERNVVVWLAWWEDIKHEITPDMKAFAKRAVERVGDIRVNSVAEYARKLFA

Measured: binding result

B1: N-terminal six histidine tagged P protein of Chandipura virus (His-P) (natural protein)
chain: MEDSQLYQALKNYPKLQDTLDSIENLEDDTKSEPSECGSPTERGIPSYYLAEELDECEEEDSEEDDDNLPTEIPDPPTVDMLEAIMEDEIDDTAYQVHFEAKQTWKPVIETGGNERGKFTLSVPQNLSALQLLQWETGIHALAERLGGCRLLQISTRGTRDGIEFTVRETPCVSPASDPIPSTSRSSSIASNVSTRQTESPGSKSNTSLGIPEAPANLIDMGAIDKEFILAAISPSDPPYKNTLRNLFGSGDSFEQYNQTGIYSLKELVIAGLKRKGIYNRIRIRCHLEPQFN
notes: Chandipura virus phosphoprotein P, full length (pET20b-P); pET20b usually adds a C-terminal His tag (surmise); also called 6×His-P; pET20b-P; source: bacterially expressed, purified (Ni-NTA agarose); not shown: His6, N-terminal, kept
binds: all assays above

Source: publication PMC3317646, “Interaction of Chandipura Virus N and P Proteins: Identification of Two Mutually Exclusive Domains of N Involved in Interaction with P” (PLoS ONE, 2012)
